In patent US5215888A, “Kit for assaying the cellular integrity of blood platelets” (Yeda Research and Development Co. Ltd., priority 1988, dated 1993):
Ends that are not written are not given here.

Key:
[1] = target: T1, PKA (Homo sapiens, UniProt P17612); assay: Inhibition of vitronectin phosphorylation by PKA in the presence of competing peptide; type: biochemical; details: for inhibition of the phosphorylation of vitronectin by PKA (in words): competitive
T1 construct: pure catalytic subunit of PKA from rabbit muscle; from tissue
Text: Peptides containing the sequence Arg-Arg-Pro-X-Arg (X=Ser, Thr, Ala, Cys, Tyr) inhibit the phosphorylation of vitronectin by PKA.
FIG. 5 Inhibition of vitronectin phosphorylation by PKA in the presence of the indicated concentrations of a peptide identical in sequence to the site phosphorylated in vitronectin.

[2] = test system: vitronectin phosphorylation by PKA; assay: Phosphorylation of vitronectin at various pH in the presence or absence of heparin; type: biochemical; details: 3-fold molar excess of heparin over vitronectin (2.7 μM); FIG. 6
Procedure: The phosphorylation of vitronectin (p75 and mainly the p65 form) is affected by pH and by the presence of heparin in the reaction mixture (FIG. 6).
FIG. 6 Vitronectin (2.7 μM was incubated for 2 h at 22° C. with C (1 μg/ml) in the presence of Mg(CH3 COO)2 (10 mM), [γ^32 ]ATP 50 μM, 0.5 Ci/mmol), (50 Mes at the indicated pH), and a 3-fold molar excess of heparin over vitronectin (where indicated). The reaction was terminated by boiling in Laemli's sample buffer and the extent of phosphorylation was analyzed by polyacrylamide gel electrophoresis and autoradiography.

Substance | inhibition of the phosphorylation of vitronectin by PKA (in words) [1] | Ki ([1]; FIG. 5, peptide competes as alternative substrate, read-out: Ki concentration for inhibition of the phosphorylation of vitronectin by PKA) [µM] | effect on the amount of phosphorylation of vitronectin [2]
-Arg-Arg-Pro-Ser-Arg- (RRPSR; printed: Arg-Arg-Pro-Ser-Arg-) | competitively inhibit |  | 
SRRPSRAT | compete with (inhibit) | 30 | 
heparin |  |  | increase
